Measurements: patent publication US20080206232A1

Tests used:
LXRα = assay: cell-based or functional assay
SREBP1c = assay: cell-based or functional assay

Row | promoter activity of ABCA1-luc in transfected H2.35 hepatoma cells (LXRα) | luciferase activity of 4×LXRE-luc in transfected H2.35 hepatoma cells, with LXRα/RXR and LXR ligand (LXRα) | luciferase activity of the FAS promoter reporter (FAS-700 luc) in transfected H2.35 hepatoma cells (SREBP1c) | Substance
1 | 2 to 3 fold |  |  | Flag-PGC-1α
2 | 2 to 3 fold | > 240 fold | 17 fold | Flag-PGC-1β (from UniProt Q8VHJ7 1-1014)
